Results: the supplement of paper PMC12764529
± gives the half width of the 95% confidence interval.

Tests used:
[1] = folding stability dG unfold from trypsin proteolysis; higher = more stable
Procedure, shortened: (§1)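 Designed mini-proteins with no cysteine and under 80 residues were kept only if AlphaFold2 dimer inter-PAE was above 15. In a PA-tagged cDNA display construct, they were digested with trypsin and chymotrypsin and then sequenced. K50 was inferred by Bayesian fitting of counts, and unfolding free energy was derived per protease or combined against a sequence-predicted unfolded-state K50 and a shared folded-state K50.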

[2] = folding stability dG unfold from chymotrypsin proteolysis; higher = more stable
Procedure, shortened: as §1

[3] = folding stability dG unfold (combined trypsin and chymotrypsin); higher = more stable
Procedure, shortened: as §1

Row | Sequence | folding stability dG unfold [1] [kcal/mol] | folding stability dG unfold [2] [kcal/mol] | folding stability dG unfold [3] [kcal/mol]
1 | KETVTLEFELEDGSKVRVEVDLETKEVKVEVEKPPAPPPPPVIVLPPGLTEEERERLIKELEKKGIKVVVLS [r1_242_TrROS_Hall] | 2.25 ± 0.13 | 2.21 ± 0.09 | 2.28 ± 0.13
2 | KIKELAKKLGLNVTVKVEKKPIKNPDGSTYTITKVEVTVDKKNKTITIKVEVKNKKTNKTITKTYTIKLKKS [r1_448_TrROS_Hall] | 2.37 ± 0.12 | 2.26 ± 0.11 | 2.64 ± 0.24
3 | KKTYTAEEIRKLAEKLGLEVPEGDLEIKVVFKDNKKTYTIKPGEEYTLEEILEKLKKEKPNIVKIEIKKKPS [r1_135_TrROS_Hall] | 1.32 ± 0.18 | 2.31 ± 0.034 | 1.99 ± 0.27
4 | KKVKIEIEVEKVEDGYYVVRIKVKFEETEETIELELVFPKSLEEVLEKIKELLPEGQITEVEIEVYPLPEPS [r1_399_TrROS_Hall] | 3.89 ± 0.23 | 3.13 ± 0.25 | 3.72 ± 0.67
5 | KKVKIEIEVLSKTEEGYVMIAKAKYEEVEKVFEKPYKSKNPIETIKKIVKELFPGPEVTEVKVKYYPKEKKS [r1_399_TrMRF] | 1.11 ± 0.053 | 1.47 ± 0.11 | 1.35 ± 0.17
6 | KKYKVPVKEALKVAKKLIEKGYEKVKITAYLPNGEKYEIEDIKEFEEELKKKFPGIKPENLTVEIEVIPKES [r1_325_TrMRF] | 3.26 ± 0.15 | 4.49 ± 0.26 | 4.16 ± 0.37
7 | KTIEIWIPMPMGQAETFVKSLARKLGLPPDDYKVDNVEMQPNKDGWPYVKMEIKLPNNGKEIEIIMPPGWFS [r1_21_TrROS] | 1.67 ± 0.061 | 2.6 ± 0.059 | 2.38 ± 0.23
8 | KTIMIWFPFKSWEDVRNLIRDLARELNLPPGRDVDVKVERHPNNGYFRVTVTVSNPNGEKIDITIWFPMWDS [r1_84_TrROS] | 3.42 ± 0.1 | 5.26 ± 0.15 | 4.91 ± 0.16
9 | KTVHIPINGMPLDEMLDMARDALREDPDEGKTITIWVPGNPEWLENLGFDKIEPYKDPERPYMRIKFKVPPS [r1_467_TrROS] | 0.298 ± 0.17 | 1.24 ± 0.22 | 0.816 ± 0.14
10 | KYELVATLSRPNPETGTVVNVSVYRFEDGSYRVLVDVSTFYRTPDGSLRTSSSRAVFLVPEDVDPRELVESS [r1_243_TrMRF] | 2.75 ± 0.039 | 3.57 ± 0.081 | 3.17 ± 0.11
11 | LEIIEKLKFPGYKITSVSIQRTNNKVTIVIHFRHPKEYYMISLEIDPPNGGIKITEVHPIKPGESMDDMMNS [r1_383_TrROS] | 3.09 ± 0.15 | 3.75 ± 0.088 | 3.43 ± 0.33
12 | MDVKIEPYRDPETGELYYKAVVKFKDGKEKLIEVKVPPNGKPIAKIYDPNGKLLAEKEFDSIEEALKEALAS [r1_478_TrMRF] | 3.3 ± 0.35 | 4.24 ± 0.16 | 3.91 ± 0.37
13 | MEAEELATTLAAEALAPLPRPFEIDPENNEVRVPGGGELAELPIRVVLVDEDGEIVEERIVPVRIRAEEPGS [r1_318_TrMRF] | -0.362 ± 0.14 | 0.878 ± 0.083 | 0.542 ± 0.11
14 | MEEEEKKKAETPEIPEEVAREKALEVARELGLEEIEEIEVLSASPEGYVTVRITLPTGGEVEITIPISELES [r1_435_JUSTAS] | 2.01 ± 0.13 | 2.76 ± 0.08 | 2.54 ± 0.18
15 | MEEIKNLPGVKYEPIIEDGEIRLVRFEIPKEVFEKFGKPPVILLVEFSKDGKYRILPESIPKLLELGIIPGS [r1_256_TrMRF] | 1.85 ± 0.023 | 2.52 ± 0.058 | 2.27 ± 0.052
16 | MIIIPNATPEEVKKIILDAAKKGKEIEILIEVDPNLGPKVIKALKDLPYVKKVEPLPDGSIKVYIDKKNLKS [r1_324_TrMRF] | 1.71 ± 0.038 | 3.24 ± 0.048 | 2.89 ± 0.093
17 | MITPEEAIELAKEKAKELLEKAGPGTPSVVVEIKAEDGRVVKVEVDPVKKVINITVYDKGGKKVAEKIIEES [r1_370_JUSTAS] | 2.06 ± 0.1 | 2.67 ± 0.099 | 2.38 ± 0.11
18 | MKEITVTLPVPEEVLAAIRAGKPLPLEEIKERVKEEIAKRLGYKNVTIKSVKVEKLPDGSLVIKVKVEFLPS [r1_290_JUSTAS] | 5.45 ± 0.43 | 3.58 ± 0.044 | 4.15 ± 0.087

Row | Sequence | folding stability dG unfold [1] [kcal/mol] | folding stability dG unfold [2] [kcal/mol] | folding stability dG unfold [3] [kcal/mol]
19 | MKEYLIKIKITITDPNGKKREIEITVLVPAEELTEEQLKELLEKAKELAEKLKEKGYEVKVEVEIIPLEELS [r1_221_TrROS_Hall] | 3.83 ± 0.27 | 4.23 ± 0.21 | 4.25 ± 0.27
20 | MKIEIEIEREEDRVIVRIKIERKDGKEIELELEVPSLEEALEAIEKILASLPPEEVKIVEIEIYNADGEKIS [r1_169_TrROS_Hall] | 2.53 ± 0.14 | 1.85 ± 0.086 | 2.21 ± 0.2
21 | MKIIDVVPTPDGLIVVIKVVFPNTEEAYVSASDLDKLIKEIFERFGVKPEYLKITDIKAFSPEELKEFLEES [r1_119_TrMRF] | 2.37 ± 0.072 | 2.98 ± 0.031 | 2.78 ± 0.075
22 | MKKKVTISIKRKSEVKYTKFPNGEVVPVEDLGGLTVTIEVPESELEELLKKLDIPEDEIEEITVTITPEASS [r1_351_JUSTAS] | 1.08 ± 0.18 | -0.175 ± 0.8 | 0.648 ± 0.42
23 | MKLLKITITITVTRQFPTVPVTSTTTITLEYTTPPDDPAAIEEAKKTAEEIAKKLGATDVTVTTEEVVLESS [r1_346_JUSTAS] | 3.34 ± 0.11 | 4.08 ± 0.057 | 3.84 ± 0.11
24 | MKPIPAEEIRDLAQKLGLPLPPGQIQIKVRHNNKKKTFPIPAGDPITIDDIVENMQQQNPNIKDIEIVIHPS [r1_135_TrROS] | -0.754 ± 0.53 | -0.389 ± 0.28 | < -1
25 | MKVEIVEVEYDEETKRVRVKLKVDGKLVEIEFDLESGKVTVRIYEDGEEIEIEAESVEDALEKAKELVKEKS [r1_177_TrROS_Hall] | 2.02 ± 0.2 | 1.69 ± 0.12 | 1.93 ± 0.28
26 | MLVVEVPAEELSPEQVRERIRAALRAAREAGIRDARIVIVVEASEEQRERLRRELRELAEEEGLEVEIVERS [r1_387_TrROS_Hall] | 4.83 ± 0.17 | 5.52 ± 0.2 | 5.34 ± 0.18
27 | MMLIIKVKNKKTGKTETIKIDMSVEEIKNAIKELKKKNPNAKVTIIGVKTEEVRKALKEAGIEKIEVKPLPS [r1_114_TrROS_Hall] | 3.01 ± 0.23 | 3.5 ± 0.22 | 3.51 ± 0.31
28 | MMYLIRVTVYDEETEEEVEEIEILIELSEEELKNMSEEEREKLLEEALKKAEELAKEYPNLKIEVEIVELPS [r1_115_TrROS_Hall] | 3.52 ± 0.13 | 4.01 ± 0.09 | 3.83 ± 0.14
29 | MNIKVTSVLPDGTVVVTAEAPLPDGSSIRVTAARRGKDSYVLVTVNVYPTKVVADIKEVAPVSPGSPEEGGS [r1_53_TrMRF] | 2.21 ± 0.085 | 3.3 ± 0.12 | 2.88 ± 0.12
30 | MPARVEARRIPDEPRLEVVVDFPGYRVVVRVDEGGRVEVEVVWEENVGPEERAAAEEAAEAFAREVAEALGS [r1_468_TrMRF] | 0.401 ± 0.19 | 1.05 ± 0.039 | 0.839 ± 0.099
31 | MPLGLESERYPNGAPTIESVEVPEDGSVKITLYFPETGEKVEYTLPPNIPPGTEYEIDLPGPTGTGRLRLGS [r1_43_TrMRF] | -0.204 ± 0.2 | 1.65 ± 0.15 | 1.27 ± 0.2
32 | MPNLKPALLVIPMKVESIEEAEEKVLAFAEELAEAFPNIKKIEVEILEIDEENGIVIAKITVEAEDSALDAS [r1_52_TrMRF] | 2.12 ± 0.1 | 2.34 ± 0.051 | 2.13 ± 0.19
33 | MRIEIRVEKVEDGFYKVTIRLEETGETLELVVPKSLEEAKAAAEELLRELFPDVKVTEIRVERVPLPEEDLS [r1_80_TrROS_Hall] | 3.03 ± 0.077 | 2.77 ± 0.063 | 2.9 ± 0.07
34 | MRVVFEATYTDPEGVPVTETFVIPEEVLEEIEREGRPITREELVELAEEIIRDYTKEHDADVEFRFVEFEPS [r1_174_TrMRF] | 1.91 ± 0.086 | 2.52 ± 0.025 | 2.27 ± 0.1
35 | MSEEELRELEERLAAPGPVEVRVEVEVREEEGDEPVFVFRVRYYRPEPGEELGEEEIVVPEEELEELLRELS [r1_415_TrMRF] | 1.34 ± 0.065 | 2.31 ± 0.086 | 1.93 ± 0.15
36 | MTEEEVRAEAEARARALAEERGVEITAVDIDGEVEQVVETTTRPTPDGRPVTETTSKKIKTKVRATLRPPRS [r1_91_JUSTAS] | -0.107 ± 0.27 | 1.39 ± 0.053 | 1.09 ± 0.14
